Experimental data as given in article PMC12752606, “METTL10‐Mediated PIAS3 Methylation Links Purine Metabolism to Gastric Cancer Progression” (Advanced Science, 2025).

Biological target: T1, GST-PIAS3 (UniProt Q9Y6X2 1-628)
T1 construct: PIAS3; also called bacterially expressed PIAS3; source: E. coli BL21, purified (Glutathione Agarose Resin)
T1 sequence (looked up): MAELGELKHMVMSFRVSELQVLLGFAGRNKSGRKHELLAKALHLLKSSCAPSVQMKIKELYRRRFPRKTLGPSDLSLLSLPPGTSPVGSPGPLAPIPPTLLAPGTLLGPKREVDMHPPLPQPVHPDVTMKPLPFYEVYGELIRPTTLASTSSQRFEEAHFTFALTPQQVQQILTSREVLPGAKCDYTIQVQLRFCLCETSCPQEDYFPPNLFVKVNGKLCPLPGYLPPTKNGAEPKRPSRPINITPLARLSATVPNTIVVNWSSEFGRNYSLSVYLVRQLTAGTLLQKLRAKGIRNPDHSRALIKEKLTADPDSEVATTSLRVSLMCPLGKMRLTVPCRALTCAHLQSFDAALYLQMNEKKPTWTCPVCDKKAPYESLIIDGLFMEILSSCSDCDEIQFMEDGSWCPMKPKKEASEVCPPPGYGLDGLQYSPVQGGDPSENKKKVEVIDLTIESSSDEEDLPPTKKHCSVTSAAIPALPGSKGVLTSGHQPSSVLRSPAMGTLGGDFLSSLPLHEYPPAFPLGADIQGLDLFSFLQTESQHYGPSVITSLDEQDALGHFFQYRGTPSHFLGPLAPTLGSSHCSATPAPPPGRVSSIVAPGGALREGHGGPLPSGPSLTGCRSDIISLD
Assay: pull-down; purified GST or GST-PIAS3 incubated with purified His-METTL10 in 25 mM Tris-HCl pH 8.0, 150 mM NaCl, 4 °C overnight; Glutathione Agarose Resin; eluted with 10 mM reduced glutathione
Settings: both partners purified

B1: His-METTL10 (enzyme)
chain: not shown
notes: METTL10 (EEF1AKMT2); also called bacterially expressed METTL10; source: E. coli BL21, purified (Ni-NTA resin)
Does B1 bind?
Result: binds
